Data taken from the supplement of paper PMC10598134.
± gives the standard deviation.

Test: collision cross section of modified peptide (TIMS, N2, iRT-aligned); higher = larger / more extended gas-phase ion
How it was run: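 On a timsTOF Pro/HT (dda-PASEF, nitrogen, ~2.4 mbar), synthetic peptide pools were analysed after a 120-min nanoflow C18 separation at 60 °C and identified in MaxQuant. Three reference ions served for 1/K0 calibration, with run-wise alignment to the median iRT peptide deviation. Collision cross section comes from the Mason-Schamp equation, using the most abundant feature per charge state averaged over 1–3 technical replicates.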

[1] = charge state: 2, modification: Formyl
[2] = charge state: 2, modification: Crotonyl
[3] = charge state: 3, modification: Crotonyl
[4] = charge state: 2, modification: GlyGly (K)
[5] = charge state: 3, modification: GlyGly (K)
[6] = charge state: 2, modification: Methyl (K)
[7] = charge state: 3, modification: Methyl (K)
[8] = charge state: 2, modification: Glutarylation
[9] = charge state: 3, modification: Glutarylation
[10] = charge state: 3, modification: Citrullination (R)
[11] = charge state: 2, modification: Succinyl
[12] = charge state: 3, modification: Succinyl
[13] = charge state: 2, modification: Nitro (Y)
[14] = charge state: 2, modification: Malonyl

IINEPTAAAIAYGLDKK [_IINEPTAAAIAYGLDK(Formyl)K_]
collision cross section [1]: 458.24 ± 1.2 Å² | collision cross section (charge state: 3, modification: Formyl): 548.84 ± 1.7 Å²

VPTTEKPTVTVNFR [_VPTTEK(Crotonyl)PTVTVNFR_]
collision cross section [2]: 427.61 ± 0.55 Å² | collision cross section [3]: 510.39 Å²

PANEKATDDYHYEK [_PANEK(GlyGly (K))ATDDYHYEK_]
collision cross section [4]: 439.63 ± 1.2 Å² | collision cross section [5]: 506.82 ± 0.35 Å²

PANEKATDDYHYEK [_PANEK(Crotonyl)ATDDYHYEK_]
collision cross section [2]: 442.98 ± 0.0094 Å² | collision cross section [3]: 509.39 ± 1.3 Å²

GEVQVSDKER [_GEVQVSDK(Methyl (K))ER_]
collision cross section [6]: 360.9 ± 0.67 Å² | collision cross section [7]: 436.39 ± 5.2 Å²

VGTASVLQPVKK [_VGTASVLQPVK(Gluratylation)K_]
collision cross section [8]: 391.34 ± 0.52 Å² | collision cross section [9]: 415.52 ± 3.5 Å²

DSRGGGGNFGPGPGSNFR [_DSR(Citrullination (R))GGGGNFGPGPGSNFR_]
collision cross section [10]: 470.03 ± 5.1 Å²

HFGPVPPSQGRGR [_HFGPVPPSQGR(Citrullination (R))GR_]
collision cross section [10]: 445.8 Å²

IPPTYQIR [_IPPTY(Phospho (Y))QIR_]
collision cross section (charge state: 2, modification: Phospho (Y)): 350.25 ± 0.066 Å²

VPTTEKPTVTVNFR [_VPTTEK(Succinyl)PTVTVNFR_]
collision cross section [11]: 427.05 ± 0.52 Å² | collision cross section [12]: 513.15 ± 2.5 Å²

PDTQYTGR [_PDTQY(Nitro (Y))TGR_]
collision cross section [13]: 325.57 ± 0.55 Å²

TLTPASSPVSSPSK [_TLTPASSPVSSPS(HexNAc (ST))K_]
collision cross section (charge state: 2, modification: HexNAc (ST)): 404.79 Å²

LGSPSGKTGTCR [_LGSPSGK(Butyryl)TGTCR_]
collision cross section (charge state: 2, modification: Butyryl): 373.24 ± 0.22 Å²

YEEIVKEVSTYIK [_YEEIVK(Gluratylation)EVSTYIK_]
collision cross section [8]: 443.96 ± 1.5 Å²

DTGEKLTVAENEAETK [_DTGEK(Propionyl)LTVAENEAETK_]
collision cross section (charge state: 2, modification: Propionyl): 443.51 Å²

DHLSDKESK [_DHLSDK(Succinyl)ESK_]
collision cross section [11]: 350.32 ± 1.6 Å² | collision cross section [12]: 416.05 ± 0.88 Å²

DASTLQSQKAEGTGDAK [_DASTLQSQK(Methyl (K))AEGTGDAK_]
collision cross section [6]: 440.39 ± 1.8 Å² | collision cross section [7]: 487.49 ± 2.4 Å²

AGPNASIISLKSDK [_AGPNASIISLK(Succinyl)SDK_]
collision cross section [11]: 414.91 ± 0.86 Å²

ILDLKTGTVK [_ILDLK(Malonyl)TGTVK_]
collision cross section [14]: 359.66 ± 0.75 Å²

FGTINIVHPKLGSYTK [_FGTINIVHPK(Dimethyl (K))LGSYTK_]
collision cross section (charge state: 3, modification: Dimethyl (K)): 520.37 ± 1.2 Å²

LLEEEDSKLK [_LLEEEDSK(Malonyl)LK_]
collision cross section [14]: 379.46 ± 1.1 Å²

YTTNNSSEQR [_Y(Nitro (Y))TTNNSSEQR_]
collision cross section [13]: 355.01 ± 0.17 Å²

GRGAAAAGGPQR [_GR(Citrullination (R))GAAAAGGPQR_]
collision cross section (charge state: 2, modification: Citrullination (R)): 334.88 ± 0.28 Å²

SKHLQEQLNELK [_SK(hydroxyisobutyryl)HLQEQLNELK_]
collision cross section (charge state: 2, modification: hydroxyisobutyryl): 425.52 ± 0.81 Å² | collision cross section (charge state: 3, modification: hydroxyisobutyryl): 492.58 ± 2.1 Å²

IVSGKDYNVTANSK [_IVSGK(GlyGly (K))DYNVTANSK_]
collision cross section [4]: 423.62 ± 2 Å² | collision cross section [5]: 476.53 ± 2.2 Å²

FGDSRGGGGNFGPGPGSNFR [_FGDSR(Methyl (R))GGGGNFGPGPGSNFR_]
collision cross section (charge state: 3, modification: Methyl (R)): 500.57 ± 1.4 Å²

DLSTVEALQNLKNLK [_DLSTVEALQNLK(Gluratylation)NLK_]
collision cross section [9]: 545.2 Å²

ITGKNQVTATK [_ITGK(Formyl)NQVTATK_]
collision cross section [1]: 360.79 ± 0.79 Å²

DASTLQSQKAEGTGDAK [_DASTLQSQK(Trimethyl (K))AEGTGDAK_]
collision cross section (charge state: 2, modification: Trimethyl (K)): 445.31 ± 1 Å² | collision cross section (charge state: 3, modification: Trimethyl (K)): 482.47 ± 1.6 Å²

GYLGPEQLPDCLK [_GY(Nitro (Y))LGPEQLPDCLK_]
collision cross section [13]: 396.71 ± 0.18 Å²
